# Data from IntAct's records for PubMed 21346797.
# B1: Response regulator aspartate phosphatase H (Bacillus subtilis), Q59HN8 (parent)
# chain: MSQAIPSSRVGVKINEWYKMIRQFSVPDAEILKAEVEQDIQQMEEDQDLLIYYSLMCFRHQLMLDYLEPGKTYGNRPTVTELLETIETPQKKLTGLLKYYSLFFRGMYEFDQKEYVEAIGYYREAEKELPFVSDDIEKAEFHFKVAEAYYHMKQTHVSMYHILQALDIYQNHPLYSIRTIQSLFVIAGNYDDFKHYDKALPHLEAALELAMDIQNDRFIAISLLNIANSYDRSGDDQMAVEHFQKAAKVSREKVPDLLPKVLFGLSWTLCKAGQTQKAFQFIEEGLDHITARSHKFYKELFLFLQAVYKETVDERKIHDLLSYFEKKNLHAYIEACARSAAAVFESSCHFEQAAAFYRKVLKAQEDILKGECLYAY
# partner: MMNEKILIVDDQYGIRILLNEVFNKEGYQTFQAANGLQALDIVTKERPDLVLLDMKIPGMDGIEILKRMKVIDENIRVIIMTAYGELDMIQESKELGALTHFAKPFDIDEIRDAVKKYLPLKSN
# Variants of: B1
# Settings: with sp0f_bacsu spo0F
row,Variant,effect of a mutation on the interaction
1,MSQAIPSSRVGVKINEWYKMIRQFSVPDAEILKAEVEQDIQQMEEDNDLLIYYSLMCFRHQLMLDYLEPGKTYGNRPTVTELLETIETPQKKLTGLLKYYSLFFRGMYEFDQKEYVEAIGYYREAEKELPFVSDDIEKAEFHFKVAEAYYHMKQTHVSMYHILQALDIYQNHPLYSIRTIQSLFVIAGNYDDFKHYDKALPHLEAALELAMDIQNDRFIAISLLNIANSYDRSGDDQMAVEHFQKAAKVSREKVPDLLPKVLFGLSWTLCKAGQTQKAFQFIEEGLDHITARSHKFYKELFLFLQAVYKETVDERKIHDLLSYFEKKNLHAYIEACARSAAAVFESSCHFEQAAAFYRKVLKAQEDILKGECLYAY [Q47N],disrupting interaction
2,MSQAIPSSRVGVKINEWYKMIRQFSVPDAEILKAEVEQDIQQMEEDQDLLIYYSLMCFRHQLMLDYLEPGKTYGNRPTVTELLETIETPQKKLTGLLKYYSLFFRGMYEFDQKEYVEAIGYYREAEKELPFVSDDIEKAEFHFKVAEAYYHMKQTHVSMYHILQALDIYQNHPLASIRTIQSLFVIAGNYDDFKHYDKALPHLEAALELAMDIQNDRFIAISLLNIANSYDRSGDDQMAVEHFQKAAKVSREKVPDLLPKVLFGLSWTLCKAGQTQKAFQFIEEGLDHITARSHKFYKELFLFLQAVYKETVDERKIHDLLSYFEKKNLHAYIEACARSAAAVFESSCHFEQAAAFYRKVLKAQEDILKGECLYAY [Y175A],disrupting interaction
3,MSQAIPSSRVGVKINEWYKMIRQFSVPDAEILKAEVEQDIQQMEEDQDLAIYYSLMCFRHQLMLDYLEPGKTYGNRPTVTELLETIETPQKKLTGLLKYYSLFFRGMYEFDQKEYVEAIGYYREAEKELPFVSDDIEKAEFHFKVAEAYYHMKQTHVSMYHILQALDIYQNHPLYSIRTIQSLFVIAGNYDDFKHYDKALPHLEAALELAMDIQNDRFIAISLLNIANSYDRSGDDQMAVEHFQKAAKVSREKVPDLLPKVLFGLSWTLCKAGQTQKAFQFIEEGLDHITARSHKFYKELFLFLQAVYKETVDERKIHDLLSYFEKKNLHAYIEACARSAAAVFESSCHFEQAAAFYRKVLKAQEDILKGECLYAY [L50A],disrupting interaction
4,MSQAIPSSRVGVKINEWYKMIRQFSVPDAEILKAEVEQDIQQMEEDQDLLIYYSLMCFRHQLMLDYLEPGKTYGNRPTVTELLETIETPQKKLTGLLKYYSLFFRGMYEFDQKEYVEAIGYYREAEKELPFVSDDIAKAEFHFKVAEAYYHMKQTHVSMYHILQALDIYQNHPLYSIRTIQSLFVIAGNYDDFKHYDKALPHLEAALELAMDIQNDRFIAISLLNIANSYDRSGDDQMAVEHFQKAAKVSREKVPDLLPKVLFGLSWTLCKAGQTQKAFQFIEEGLDHITARSHKFYKELFLFLQAVYKETVDERKIHDLLSYFEKKNLHAYIEACARSAAAVFESSCHFEQAAAFYRKVLKAQEDILKGECLYAY [E137A],disrupting interaction
5,MSQAIPSSRVGVKINEWYKMIRQFSVPDAEILKAEVEQDIQQMEEDQDLLIYYSLMCFRHQLMLDYLEPGKTYGNRPTVTELLETIETPQKKLTGLLKYYSLFFRGMYEFDQKEYVEAIGYYREAEKELPFVSADIEKAEFHFKVAEAYYHMKQTHVSMYHILQALDIYQNHPLYSIRTIQSLFVIAGNYDDFKHYDKALPHLEAALELAMDIQNDRFIAISLLNIANSYDRSGDDQMAVEHFQKAAKVSREKVPDLLPKVLFGLSWTLCKAGQTQKAFQFIEEGLDHITARSHKFYKELFLFLQAVYKETVDERKIHDLLSYFEKKNLHAYIEACARSAAAVFESSCHFEQAAAFYRKVLKAQEDILKGECLYAY [D134A],decreasing interaction
6,MSQAIPSSRVGVKINEWYKMIRQFSVPDAEILKAEVEQDIQQMEEDQDLLIYYSLMCARHQLMLDYLEPGKTYGNRPTVTELLETIETPQKKLTGLLKYYSLFFRGMYEFDQKEYVEAIGYYREAEKELPFVSDDIEKAEFHFKVAEAYYHMKQTHVSMYHILQALDIYQNHPLYSIRTIQSLFVIAGNYDDFKHYDKALPHLEAALELAMDIQNDRFIAISLLNIANSYDRSGDDQMAVEHFQKAAKVSREKVPDLLPKVLFGLSWTLCKAGQTQKAFQFIEEGLDHITARSHKFYKELFLFLQAVYKETVDERKIHDLLSYFEKKNLHAYIEACARSAAAVFESSCHFEQAAAFYRKVLKAQEDILKGECLYAY [F58A],decreasing interaction
